# Measurements from the FLAb antibody collection.
# Test: melting temperature
Sequence,Tm (DSF (SYPRO)),Tm (nanoDSF),Tm (Circular dichroism)
QVQLQESGGGSVQAGGSLRLSCVASEYDFNSYSSVSVGWFRQAPGKECVLVSRIGNDARTDYSDNVKGRFTISRDNAKRTAYLEMNSLKAEDTAVYYCAANQLSSAVVGTEYPCSKAAFAHWGQGTQVTVSS,64.8 °C,64.5 °C,
QVQLQESGGGSVQAGGSLRLSCAVSGYTYSRNCIGWFRQAPGKEREGVAALYTGGGSTYYAASVKGRFTISQDTKNTVYLQMNSLKPEDSAMYYCAANPFGLYTCGDLRGPDFGYWGQGTQVTVSS,71 °C,,
TGGGLVQAGASLRLSCAASGRTFSTDHMGWFRQAPQKEREFVAAINAWSGLSIYYADSVKGRFTISRDNDKKTAYLQMNSLKPEDTAVYYCAAKEMGRGWVPQSSDDYDAWGQGTQV,,66.6 °C,
QVKLEESGGGLVQAGGSLRLSCAASERTFSRYPVAWFRQAPGAEREFVAVISSTGTSTYYADSVKGRFTISRDNAKVTVYLQMNNLKREDTAVYFCAVNSQRTRLWDPNEYDYWGQGTQVTVSSGSEQKLISEEDLNHHHHHH,79.7 °C,,
QVKLEESGGGLVQAGGSLRLSCAASERTFSRYPVAWFRQAPGAEREFVAVISSTGTSTYYADSVKGRFTISRDNAKVTVYLQMNNLKREDTAVYFCAVNSKRRRLQDPNEYDYWGQGTQVTVSSGSEQKLISEEDLNHHHHHH,81.9 °C,,
QVKLEESGGGLVQAGGSLRLSCAASERTFSRYPVAWFRQAPGAEREFVAVISSTGTSTYYADSVKGRFTISRDNAKVTVYLQMNNLKREDTAVYFCAVNSQRTRLQYPNEYDYWGQGTQVTVSSGSEQKLISEEDLNHHHHHH,73.4 °C,,
QVKLEESGGGLVQAGGSLRLSCAASERTFSRYPVAWFRQAPGAEREFVAVISSTGTSTYYADSVKGRFTISRDNAKVTVYLQMNNLKREDTAVYFCAVNSQRMRLQDPNEYDYWGQGTQVTVSSGSEQKLISEEDLNHHHHHH,77.4 °C,,
PRVEQTPRITTKETGESLTINCVLTGTSCNLWTATWFRKNPGTTDWERIRIGGRYVESVNKGAKSFSLRIKDLTVADSATYYCKVQFNLYCGEADWYDGAGTLLTVK,,,66 °C
QVKLEESGGGLVQAGGSLRLSCAASERTFSRYPVAWFRQAPGAEREFVAVISSTGTSTYYADSVKGRFTISRDNAKVTVYLQMNNLKREDTAVYFCAVNSQRTRLQNPNEYDYWGQGTQVTVSSGSEQKLISEEDLNHHHHHH,74.9 °C,,
